Assay results as given in article PMC4876229.

How the values were obtained:
murine PAI‐1 (murine) = murine PAI‐1 (murine) (UniProt P22777)
[1] = target: human recombinant plasminogen activator inhibitor‐1 (stable PAI‐1 variant 14‐1B) (human) (UniProt P05121); test: SPR; anti‐PAI‐1 monoclonal antibody (Mab‐1) immobilised on a CM5 Biacore chip, PAI‐1 captured on it, uPA‐S195A variants applied from 25 nM to 48.8 pM; global fit to a 1:1 binding model; repeated three times
[2] = target: human recombinant plasminogen activator inhibitor‐1 (stable PAI‐1 variant 14‐1B) (human) (UniProt P05121)
[3] = target: human recombinant plasminogen activator inhibitor‐1 (stable PAI‐1 variant 14‐1B) (human) (UniProt P05121); remark: listed apart in the source
[4] = target: human recombinant plasminogen activator inhibitor‐1 (stable PAI‐1 variant 14‐1B) (human) (UniProt P05121); remark: listed apart in the source
[5] = target: endogenous plasma PAI‐1 (human (endogenous in plasma)) (UniProt P05121)
[6] = target: recombinant human plasminogen activator inhibitor‐2 (human) (UniProt P05120)
PN‐1 (human) = PN‐1 (human) (UniProt P07093)
[7] = target: human α2‐antiplasmin (human) (UniProt P08697)
[8] = target: human antithrombin‐III (human) (UniProt P01008)
[9] = target: human recombinant plasminogen activator inhibitor‐1 (stable PAI‐1 variant 14‐1B) (human) (UniProt P05121); remark: listed apart in the source

Row | Kd [1] | koff [1] | kon [1] | IC50, chromogenic assay: recovery of uPA activity (S‐2444 hydrolysis) from inhibition by PAI‐1 (15 nM PAI‐1, 15 nM human uPA); blocks PAI‐1 + uPA [4] | Substance | further results
1 | 0.15 nM | 0.000627 s⁻¹ | 4.11e+06 M⁻¹ s⁻¹ | 10 nM | PAItrap (uPA‐S195A‐G37bR‐R217L‐C122A‐N145Q) (domain or fragment) | IC50, chromogenic assay similar to that used for human PAI‐1; inhibition of murine PAI‐1 (murine PAI‐1 (murine)): 14 nM; clot lysis time in human platelet‐poor plasma: 2.4 nM tPA, 0.9 nM PAI‐1, 6.5 nM PAItrap; blocks PAI‐1 + tPA [2]: 6 min; IC50 of blocking PAI‐1 inhibition on tPA (Fig. S1); blocks PAI‐1 + tPA [3]: 14 nM; time to 50% clot lysis in platelet‐free plasma without exogenous PAI‐1: 100 pM tPA, 20 or 200 nM PAItrap (96 min without PAItrap); blocks PAI‐1 + tPA [5]: 68 min; IC50, chromogenic assay: recovery of uPA activity (S2444) from inhibition by 15 nM PAI‐2, 15 nM uPA, 37°C; blocks PAI‐2 + uPA [6]: 14000 nM; IC50, chromogenic assay: recovery of uPA activity (S2444) from inhibition by 15 nM PN‐1, 15 nM uPA, 37°C; blocks PN‐1 + uPA (PN‐1 (human)): 16000 nM; IC50, chromogenic assay: plasmin activity (Gly‐Arg‐p‐nitroanilide) with 15 nM α2‐antiplasmin and 15 nM human plasmin; blocks α2‐antiplasmin + plasmin [7]: > 50000 nM; IC50, chromogenic assay: remaining thrombin activity (Gly‐Arg‐p‐nitroanilide) with 30 nM antithrombin‐III and 30 nM human α‐thrombin, 37°C; blocks antithrombin‐III + α‐thrombin [8]: 40000 nM
2 | 1.57 nM | 0.00121 s⁻¹ | 776000 M⁻¹ s⁻¹ | 109 nM | uPA‐SPD S195A‐C122A‐N145Q (domain or fragment) | clot lysis time in human platelet‐poor plasma: 2.4 nM tPA, 0.9 nM PAI‐1, 6.5 nM uPA‐S195A; blocks PAI‐1 + tPA [9]: 39 min
3 | – | – | – | 22 nM | uPA‐SPD S195A‐C122A‐N145Q‐A96E (domain or fragment) | –
4 | 0.32 nM | 0.000698 s⁻¹ | 2.3e+06 M⁻¹ s⁻¹ | 25 nM | uPA‐SPD S195A‐C122A‐N145Q‐G37bR (domain or fragment) | –
5 | – | – | – | 30 nM | uPA‐SPD S195A‐C122A‐N145Q‐G37bR‐R217L‐A96E (domain or fragment) | –
6 | 0.83 nM | 0.00114 s⁻¹ | 2.35e+06 M⁻¹ s⁻¹ | 90 nM | uPA‐SPD S195A‐C122A‐N145Q‐G37bR‐Y60bK (domain or fragment) | –
7 | – | – | – | 26 nM | uPA‐SPD S195A‐C122A‐N145Q‐G37bR‐Y60bK‐R217L (domain or fragment) | –
8 | – | – | – | 3000 nM | uPA‐SPD S195A‐C122A‐N145Q‐Q192K (domain or fragment) | –
9 | 0.63 nM | 0.00084 s⁻¹ | 1.33e+06 M⁻¹ s⁻¹ | 48 nM | uPA‐SPD S195A‐C122A‐N145Q‐R217L (domain or fragment) | –
10 | – | – | – | > 3000 nM | uPA‐SPD S195A‐C122A‐N145Q‐Y149R (domain or fragment) | –
11 | – | – | – | 1000 nM | uPA‐SPD S195A‐C122A‐N145Q‐Y151F (domain or fragment) | –
